Laboratory results taken from PMC4374139.

What was measured:
TopBP1 [1] = target: TopBP1 (UniProt Q92547); experiment: biotin-peptide streptavidin pull-down from nuclear extract; settings: reference: nonphosphorylated peptide; sites S304
[2] = target: TopBP1 BRCT domains 4 and 5 (UniProt Q92547); experiment: biotin-peptide pull-down of purified GST-BRCT4-5; settings: reference: nonphosphorylated peptide; sites S304
TopBP1 [3] = target: TopBP1 (UniProt Q92547); experiment: GFP-BLM pull-down, western blot; settings: reference: wild type; sites S304
TopBP1 [4] = target: TopBP1 (UniProt Q92547); experiment: GFP-BLM pull-down, western blot; settings: reference: wild type; sites S304; remark: listed apart in the source
TopBP1 [5] = target: TopBP1 (UniProt Q92547); experiment: GFP-BLM pull-down, western blot; settings: reference: wild type; sites S304; remark: listed apart in the source
TopBP1 BRCT5 [6] = target: TopBP1 BRCT5 (UniProt Q92547); experiment: GST-BRCT5 pull-down of SFB-BLM from lysate; settings: reference: wild type; sites S304
TopBP1 BRCT5 [7] = target: TopBP1 BRCT5 (UniProt Q92547); experiment: biotin-peptide (Ser304) pull-down of purified GST-BRCT5; settings: reference: nonphosphorylated Ser304 peptide; sites S304

Substance: BLM 297-311 (from UniProt P54132) pS304 peptide
- binding against the reference (TopBP1 [1]): gained
- binding against the reference [2]: gained

Substance: BLM (from UniProt P54132) S304A
- binding against the reference (TopBP1 [3]): weaker
- binding against the reference (TopBP1 [4]): lost
- binding against the reference (TopBP1 [5]): weaker
- binding against the reference (TopBP1 BRCT5 [6]): weaker

Substance: BLM (from UniProt P54132) pS304 peptide
- binding against the reference (TopBP1 BRCT5 [7]): gained
